How the values were obtained:
[1] = biological target: T1, hTIGIT (ELISA of Table 7) (human, UniProt Q495A1 22-141, limits assumed); test: ELISA binding
T1 construct: whole entry named; also called human TIGIT
T1 chain: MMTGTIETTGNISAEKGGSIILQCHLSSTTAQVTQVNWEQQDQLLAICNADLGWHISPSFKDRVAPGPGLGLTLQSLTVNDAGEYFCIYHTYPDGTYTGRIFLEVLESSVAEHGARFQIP

[2] = biological target: T2, mTIGIT (ELISA of Table 7) (mouse, UniProt P86176 29-145, limits assumed); test: ELISA binding
T2 construct: also called mouse TIGIT
T2 sequence (looked up): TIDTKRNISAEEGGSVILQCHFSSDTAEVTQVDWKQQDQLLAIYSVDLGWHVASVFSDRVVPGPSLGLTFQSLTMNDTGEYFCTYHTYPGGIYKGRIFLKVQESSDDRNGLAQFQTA

[3] = biological target: T2, mTIGIT (ELISA of Table 7); test: mTIGIT/mCD155 competition ELISA; competitor mCD155
[4] = biological target: T3, human TIGIT expressed on cells (TIGIT/Jurkat cells; MJ[G11] cells; PBMC T cells) (human, UniProt Q495A1 22-244); test: flow cytometry on TIGIT/Jurkat cells
T3 construct: The cell line is named under assay; also called human TIGIT-expressing Jurkat cells
T3 sequence: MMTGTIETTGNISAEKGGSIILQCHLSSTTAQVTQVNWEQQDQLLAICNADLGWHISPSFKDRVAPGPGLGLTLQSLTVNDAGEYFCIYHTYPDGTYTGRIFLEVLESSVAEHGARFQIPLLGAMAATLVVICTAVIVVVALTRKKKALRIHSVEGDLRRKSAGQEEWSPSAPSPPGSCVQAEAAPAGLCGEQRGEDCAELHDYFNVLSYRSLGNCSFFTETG
Experimental: Sequential dilutions of Protein A column-purified 7D4, 2C9, and 3A9 antibodies were separately incubated with 5×10⁵ of human TIGIT-expressing Jurkat cells (TIGIT/Jurkat) in 50 μl of FACS buffer (0.2% BSA in Dulbecco's phosphate-buffered saline (DPBS) containing 0.09% sodium azide) on ice for 1 hour. After washing, the cells were stained with anti-mouse IgG conjugated with PE dyes and antibody binding strength was analyzed by flow cytometry.

[5] = biological target: T4, TIGIT-biotin (TIGIT:CD155 Homogeneous Assay Kit, #72029) (human, UniProt Q495A1 22-141, limits assumed, biotin (site not stated)); test: AlphaLISA competition: TIGIT-biotin with antibody, then histidine-tagged CD155 as competitor
T4 construct: Kit reagent; also called human TIGIT
T4 chain: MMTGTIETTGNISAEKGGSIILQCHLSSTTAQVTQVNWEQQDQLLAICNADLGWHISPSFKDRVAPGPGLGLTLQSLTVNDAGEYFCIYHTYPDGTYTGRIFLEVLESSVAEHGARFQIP
Experimental: To evaluate inhibition of binding of TIGIT to CD155 by anti-TIGIT antibodies, AlphaLISA assays were performed using a TIGIT:CD155 Homogeneous Assay Kit (PBS Biosciences, #72029). Aliquots (6 μl) of solution containing TIGIT-biotin (final concentration 0.2 ng/μl) and 4-fold serial dilution of the test antibodies (final volume 2 μl) were added into a 384-well plate. The plates were covered with a lid and incubated at room temperature for 30 min. Then, 2 μl of histidine-tagged CD155 were added (final concentration 0.05 ng/μl) into each well and incubated at room temperature for 60 min. Finally, aliquots (5 μl) of streptavidin-conjugated donor beads (final concentration 10 μg/ml) and 5 μl of anti-His tag acceptor beads (final concentration 20 μg/ml) were added and the plate was incubated at room temperature for 30 min in the dark. AlphaLISA signals were measured on an EnSpire Alpha 2390 (Perkin-Elmer Life Sciences). 15A6 (U.S. Pat. No. 10,189,902) and MBSA43 (Thermo Fisher Scientific, #16-9500-82) were used as reference antibodies.
These antibodies were selected for further functional studies.

[6] = biological target: T5, human TIGIT IgV domain Q56A (human, UniProt Q495A1 22-141, limits assumed); test: ELISA on TIGIT IgV point mutants
T5 construct: Made in Expi293F cells, purified on Strep-Tactin XT; Limits of the IgV domain not readable, whole entry named; also called Q56 single alanine substitution mutant
T5 chain: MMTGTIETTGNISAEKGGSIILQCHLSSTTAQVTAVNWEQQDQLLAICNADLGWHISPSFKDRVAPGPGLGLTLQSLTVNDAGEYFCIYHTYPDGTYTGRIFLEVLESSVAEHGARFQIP
Experimental: (§1) To further identify the amino acid residues of TIGIT that interact with the recombinant 7D4 mIgG2a antibody, single alanine substitution mutants were generated in the human TIGIT IgV domain by site-directed mutagenesis using standard molecular techniques. ELISA binding assays were then performed to assess 7D4 binding strength.
(§2) To identify the amino acid residues of TIGIT that interact with the humanized 7D4 variant, 1A11 (in human IgG1-DLE isotype), ELISA binding assays with the single alanine substitution mutants were performed to assess 1A11 binding strength. […] Similar to the parental mouse 7D4 antibody, Q56 and Y106 single alanine substitution mutants completely abolished the binding of 1A11.

[7] = biological target: T6, human TIGIT IgV domain G74A (human, UniProt Q495A1 22-141, limits assumed); test: ELISA on TIGIT IgV point mutants
T6 construct: Made in Expi293F cells, purified on Strep-Tactin XT; Limits of the IgV domain not readable, whole entry named; also called G74 single alanine substitution mutant
T6 chain: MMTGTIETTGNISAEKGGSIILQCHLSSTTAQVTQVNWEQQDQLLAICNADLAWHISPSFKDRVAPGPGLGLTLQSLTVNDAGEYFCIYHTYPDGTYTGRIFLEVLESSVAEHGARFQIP
Experimental: as §1, §2

[8] = biological target: T7, human TIGIT IgV domain Y106A (human, UniProt Q495A1 22-141, limits assumed); test: ELISA on TIGIT IgV point mutants
T7 construct: Made in Expi293F cells, purified on Strep-Tactin XT; Limits of the IgV domain not readable, whole entry named; also called Y106 single alanine substitution mutant
T7 chain: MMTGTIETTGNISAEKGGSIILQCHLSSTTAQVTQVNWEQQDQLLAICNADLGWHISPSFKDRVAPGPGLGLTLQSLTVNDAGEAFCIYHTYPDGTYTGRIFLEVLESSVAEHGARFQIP
Experimental: as §1, §2

[9] = biological target: T8, human TIGIT IgV domain Y110A (human, UniProt Q495A1 22-141, limits assumed); test: ELISA on TIGIT IgV point mutants
T8 construct: Made in Expi293F cells, purified on Strep-Tactin XT; Limits of the IgV domain not readable, whole entry named; also called Y110 single alanine substitution mutant
T8 chain: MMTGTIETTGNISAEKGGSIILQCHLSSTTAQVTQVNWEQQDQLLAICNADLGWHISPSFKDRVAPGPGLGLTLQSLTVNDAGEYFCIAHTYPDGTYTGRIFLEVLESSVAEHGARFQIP
Experimental: as §1, §2

[10] = biological target: T9, human TIGIT IgV domain H111 single alanine substitution mutant (human, UniProt Q495A1 22-141, limits assumed); test: ELISA on TIGIT IgV point mutants
T9 construct: Printed as "H111" in the list of mutants; the text calls it a single alanine substitution mutant; Limits of the IgV domain not readable, whole entry named; also called H111A
T9 chain: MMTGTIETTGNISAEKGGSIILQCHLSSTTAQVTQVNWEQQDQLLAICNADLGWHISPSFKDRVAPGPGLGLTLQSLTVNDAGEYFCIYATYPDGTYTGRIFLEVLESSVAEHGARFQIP
Experimental: as §1, §2

B1: 1G3 mIgG2a-DLE (antibody, V domains shown)
VH: DIQLVQSGGGLVKPGGSLRLSCAASGYTFTNYWIGWVRQTPGKGLEWVGDIYPGSSFTNSNEKFKGRFTISADKSKNTAYLQMNSLRAEDTAVYYCARDMVGYWYFDVWGQGTLVTVSS
VL: DIVLTQSPATLSASLGERATLSCSASSSVSYIHWYQQKPGQAPKLLIYTTSNLASGVPSRFSGSGSGTDFTLTISSLEAEDFATYYCHQWSRYPTFGGGTKLEIK
notes: Mouse IgG2a isotype with DLE (S239D/A330L/I332E) mutations at the Fc region
- EC50 [1]: 9.4 nM
- EC50 [2]: 3.6 nM
- IC50 [3]: 61.7 nM

B2: 2F1 mIgG2a-DLE (antibody, V domains shown)
VH: DIQLVQSGGGLVKPGGSLRLSCAASGYTFTNYWIGWVRQTPGKGLEWVGDIYPGSSFTNSNEKFKGRFTISADKSKNTAYLQMNSLRAEDTAVYYCARVIVGYWYFDVWGQGTLVTVSS
VL: DIVLTQSPATLSASLGERATLSCSASSSVSYIHWYQQKPGQAPKLLIYTTSNLASGVPSRFSGSGSGTDFTLTISSLEAEDFATYYCHQWSRYPTFGGGTKLEIK
notes: as for B1
- EC50 [1]: 464 nM
- EC50 [2]: 1.1 nM
- IC50 [3]: 33.8 nM

B3: 3H2 mIgG2a-DLE (antibody, V domains shown)
VH: DIQLVQSGGGLVKPGGSLRLSCAASGYTFTNYWIGWVRQTPGKGLEWVGDIYPGSSFTNSNEKFKGRFTISADKSKNTAYLQMNSLRAEDTAVYYCARIRLGYWYFDVWGQGTLVTVSS
VL: DIVLTQSPATLSASLGERATLSCSASSSVSYIHWYQQKPGQAPKLLIYTTSNLASGVPSRFSGSGSGTDFTLTISSLEAEDFATYYCHQWSRYPTFGGGTKLEIK
notes: as for B1
- EC50 [1]: 0.9 nM
- EC50 [2]: 0.7 nM
- IC50 [3]: 12.4 nM

B4: hz7D4 mIgG2a (antibody, V domains shown)
VH: EVQLVQSGGGLVKPGGSLRLSCAASGYTFTNYWIGWVRQTPGKGLEWVGDIYPGSSFTNSNEKFKGRFTISADKSKNTAYLQMNSLRAEDTAVYYCARLGRGYWYFDVWGQGTLVTVSS
VL: DIVLTQSPATLSASLGERATLSCSASSSVSYIHWYQQKPGQAPKLLIYTTSNLASGVPSRFSGSGSGTDFTLTISSLEAEDFATYYCHQWSRYPTFGGGTKLEIK
- EC50 [1]: 0.3 nM
- EC50 [2]: 217 nM

B5: 2C9 (antibody, V domains shown)
VH: DIQLKQSGAELVRPGASVKLSCKASGYTFTDSYINWVKQRPGQGLEWIARFYPGSGNTYYNEKFKGKATLTAEKSSSTAYMQLSSLTSEDSAVYFCAREAWLLFYGMDYWGQGTTVTVSS
VL: DIVLTQSPAIMSASPGEKVTISCSANSSVSYMYWYQQKPGSSPKPWIYRTSNLASGVPARFSGSGSGTSYSLTISSMEAEDAATYYCQQYHSYPLTFGAGTKLELK
notes: Mouse monoclonal antibody from hybridoma clone 2C9, Protein A purified; also called anti-TIGIT monoclonal antibody 2C9
- Kd [4]: 2 nM
- IC50 [5]: 0.4 nM

B6: 3A9 (antibody, V domains shown)
VH: QVQLQQPGAELVRPGSSVKLSCKASGYTFTSYWMHWVKQRPIQGLEWIGNIDPSDSATHYNQKFKDKATLTVDKSSSTAYMHLSSLTSEDSAVYYCARTGIDYGSSYFDYWGQGTILTVSS
VL: DIVLTQSPASLAVSLGQRATISCRASQSVSTSSYSYIHWYQQKPGQPPKLLIKYASNLESGVPARFSGSGSGTDFTLNIHPVEEEDTATYYCQHNWEIPRTFGGGTKLEIK
notes: Mouse monoclonal antibody from hybridoma clone 3A9, Protein A purified; also called anti-TIGIT monoclonal antibody 3A9
- Kd [4]: 1.86 nM
- IC50 [5]: 0.55 nM

B7: recombinant 7D4 mIgG2a antibody (antibody, V domains shown)
VH: QVQLKHSGAELVRPGTSVKMSCKASGYTFTNYWIGWAKQRPGHGLEWIGDIYPGSSFTNSNEKFKGKATLTADKSSSTAYMQFSSLTSEDSAIYYCAKLGRGYWYFDVWGTGTSVTVSA
VL: DIVLTQSPAIMSASLGEEITLTCSASSSVSYIHWYQQKSGTSPKLLIYTTSNLASGVPSRFSGSGSGTFYSLTISSVEAEDAADYYCHQWSRYPTFGGGTKLEIK
notes: Recombinant form with mouse IgG2a constant region (vector pFUSEss-CHIg-mG2a); also called recombinant 7D4 antibody (in mouse IgG2a isotype)
- binding result [6]: no binding
- reduction in binding against the wild type [7]: 50%
- binding result [8]: no binding
- reduction in binding against the wild type [9]: > 50%
- reduction in binding against the wild type [10]: > 50%

B8: 1A11 hIgG1-DLE (antibody, V domains shown)
VH: EVQLVQSGGGLVKPGGSLRLSCAASGYTFTNYWIGWVRQTPGKGLEWVGDIYPGSSFTNSNEKFKGRFTISADKSKNTAYLQMNSLRAEDTAVYYCARLGRGYWYFDVWGQGTLVTVSS
VL: DIVLTQSPATLSASLGERATLSCSASSSVSYIHWYQQKPGQAPKLLIYTTSNLASGVPSRFSGSGSGTDFTLTISSLEAEDFATYYCQLFRSGSAFGGGTKLEIKR
notes: Human IgG1 with DLE mutations at the Fc region, expressed in CHO-S cells; also called humanized 7D4 variant 1A11 (in human IgG1-DLE isotype)
- binding result [6]: no binding
- reduction in binding against the wild type [7]: > 40%
- binding result [8]: no binding
- reduction in binding against the wild type [9]: > 40%
- reduction in binding against the wild type [10]: > 40%
